Patent publication US20210395323A1 (UNIVERSIT T STUTTGART, published 2021)

Assays:
[1] = biological target: T1, human TNFR2-Fc fusion protein (human, UniProt P20333 23-257); assay: ELISA, huTNFR2-Fc coated at 1 µg/ml, bound protein detected with anti-TNF F6C5
T1 construct: also called huTNFR2-Fc; huTNFR2
T1 sequence (looked up): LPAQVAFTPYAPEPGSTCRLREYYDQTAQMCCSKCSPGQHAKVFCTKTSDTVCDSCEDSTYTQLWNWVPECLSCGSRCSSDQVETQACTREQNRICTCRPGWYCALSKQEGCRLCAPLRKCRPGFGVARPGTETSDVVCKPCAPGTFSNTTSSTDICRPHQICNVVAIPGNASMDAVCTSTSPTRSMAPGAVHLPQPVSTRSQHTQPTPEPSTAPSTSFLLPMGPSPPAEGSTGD
Protocol: ELISA plates (Greiner, Frickenhausen, Germany) were coated with huTNFR1-Fc, mTNFR1-Fc, huTNFR2-Fc or mTNFR2-Fc fusion proteins at 1 μg/ml in PBS and incubated at 4° C. overnight. Residual binding sites were blocked with 2% skim milk powder in PBS at RT for 2 hours. ScTNFR2 and the complexes were diluted in 2% skim milk powder in PBS and added at concentrations in the range of 10⁻³ to 10 nM and incubated for 1 hour at RT. Between each step, non-bound proteins were removed by washing 4 times with 0.005% Tween-20 in PBS.
Bound proteins were detected with mouse monoclonal antibodies to TNF (clone F6C5; 1 μg/ml; incubation for 1 hour at RT) and HRP-conjugated anti-mouse IgG antibodies (diluted 1:10000; incubation for 1 hour at RT), followed by incubation with tetramethylbenzidine (TMB) substrate solution. Reaction was stopped by addition of 1 M H₂SO₄ and the absorbance at 450 nm was determined with a Multiskan FC absorbance reader (Thermo Scientific, Karlsruhe, Germany) and data were analyzed using the software Microsoft Excel and GraphPad Prism 4 (GraphPad, La Jolla, Calif.) (FIG. 5). In Table 3, the calculated EC₅₀ values for the binding of TNF, scTNFR2 and the complexes to immobilized huTNFR2 and mTNFR2 based on the ELISA assay are summarized.

[2] = biological target: T2, TNFR2 on human cells (Kym-1 cells; human CD3+ T cells) (human, UniProt P20333 23-461); assay: cell-based or functional assay
T2 sequence (looked up): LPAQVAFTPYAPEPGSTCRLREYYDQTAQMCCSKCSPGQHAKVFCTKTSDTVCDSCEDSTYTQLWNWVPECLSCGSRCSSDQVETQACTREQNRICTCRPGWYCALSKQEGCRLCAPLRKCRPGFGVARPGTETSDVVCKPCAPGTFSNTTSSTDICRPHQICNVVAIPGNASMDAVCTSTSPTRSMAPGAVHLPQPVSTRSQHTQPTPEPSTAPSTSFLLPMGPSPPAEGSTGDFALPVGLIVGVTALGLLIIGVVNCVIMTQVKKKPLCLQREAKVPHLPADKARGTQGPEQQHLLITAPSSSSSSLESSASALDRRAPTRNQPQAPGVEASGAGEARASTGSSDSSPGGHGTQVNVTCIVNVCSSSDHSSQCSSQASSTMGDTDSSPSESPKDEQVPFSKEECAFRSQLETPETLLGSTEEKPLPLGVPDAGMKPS

[3] = biological target: T2, TNFR2 on human cells (Kym-1 cells; …); assay: cell-based or functional assay; remark: listed apart in the source

B1: EHD2-scTNFR2 (human) (ligand)
chain: DFTPPTVKILQSSCDGGGHFPPTIQLLCLVSGYTPGTINITWLEDGQVMDVDLSTASTTQEGELASTQSELTLSQKHWLSDRTYTCQVTYQGHTFEDSTKKCADSNGGGSGGGSGGGSGGGSGGGSGGSEFLASSRTPSDKPVAHVVANPQAEGQLQWLNRRANALLANGVELRDNQLVVPSEGLYLIYSQVLFKGQGCPSTHVLLTHTISRIAVSYQTKVNLLSAIKSPCQRETPEGAEAKPWYEPIYLGGVFQLEKGDRLSAEINRPDYLNFRESGQVYFGIIALGGGGSSSRTPSDKPVAHVVANPQAEGQLQWLNRRANALLANGVELRDNQLVVPSEGLYLIYSQVLFKGQGCPSTHVLLTHTISRIAVSYQTKVNLLSAIKSPCQRETPEGAEAKPWYEPIYLGGVFQLEKGDRLSAEINRPDYLNFRESGQVYFGIIALGGGGSSSRTPSDKPVAHVVANPQAEGQLQWLNRRANALLANGVELRDNQLVVPSEGLYLIYSQVLFKGQGCPSTHVLLTHTISRIAVSYQTKVNLLSAIKSPCQRETPEGAEAKPWYEPIYLGGVFQLEKGDRLSAEINRPDYLNFRESGQVYFGIIAL
notes: Hexavalent dimer of two subunits; also called hexavalent EHD2-scTNFR2
Q: With B1 as the binder, how does the EC50 [1] read?
A: Its EC50 is 0.508 nM.

Q: What about the “EC50 of Kym-1 cell viability (crystal violet assay after 16 h)” value [2] of the same binder?
A: Its value is 37000 nM.

Q: What about the “EC50 values (nM) of cell death induction using Kym-1 cells” value [3] of the same binder?
A: Its value is 0.0126 nM.
